Test results from article PMC6697693.
Each block holds one substance with its values, some of them ahead of it.

Biological target: Δ258-UNC-23, stable fragment of UNC-23, fluorescently labelled (C. elegans)
Sequence (main, as listed by the source mutant): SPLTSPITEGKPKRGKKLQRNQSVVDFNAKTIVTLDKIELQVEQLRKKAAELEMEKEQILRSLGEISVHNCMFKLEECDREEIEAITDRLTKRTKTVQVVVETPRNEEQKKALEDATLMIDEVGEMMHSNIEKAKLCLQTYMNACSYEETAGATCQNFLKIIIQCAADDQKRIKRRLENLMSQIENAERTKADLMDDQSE

Chain of wild type Hsc70 (nematode Hsc70, HSP-1) (P09446 whole entry): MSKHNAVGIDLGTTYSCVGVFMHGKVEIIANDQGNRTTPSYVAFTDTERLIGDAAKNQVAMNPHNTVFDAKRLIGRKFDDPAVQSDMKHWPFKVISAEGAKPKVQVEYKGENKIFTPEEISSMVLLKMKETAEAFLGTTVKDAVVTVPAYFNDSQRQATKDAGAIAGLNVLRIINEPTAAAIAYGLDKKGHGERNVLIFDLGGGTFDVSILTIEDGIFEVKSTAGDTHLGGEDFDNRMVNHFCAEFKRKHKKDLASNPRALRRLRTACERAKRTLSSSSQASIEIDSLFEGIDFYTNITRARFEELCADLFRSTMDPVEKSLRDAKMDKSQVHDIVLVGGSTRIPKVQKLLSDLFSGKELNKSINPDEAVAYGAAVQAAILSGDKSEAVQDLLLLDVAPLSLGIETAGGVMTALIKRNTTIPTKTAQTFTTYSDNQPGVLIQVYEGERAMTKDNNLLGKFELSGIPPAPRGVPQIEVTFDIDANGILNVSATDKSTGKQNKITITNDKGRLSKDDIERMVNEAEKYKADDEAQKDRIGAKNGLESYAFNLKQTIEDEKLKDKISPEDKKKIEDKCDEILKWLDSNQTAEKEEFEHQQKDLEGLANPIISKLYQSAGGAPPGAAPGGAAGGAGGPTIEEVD

ATPase stimulation (stimulated minus unstimulated turnover), 3 µM Hsc70 A379V with 3 µM UNC-23: 0.02 min⁻¹
Substance: Hsc70 A379V (from UniProt P09446 1-640) (natural protein)

ATPase stimulation (stimulated minus unstimulated turnover), 3 µM Hsc70 D233N with 3 µM UNC-23: 0.12 min⁻¹
Substance: Hsc70 D233N (from UniProt P09446 1-640) (natural protein)

ATPase stimulation (stimulated minus unstimulated turnover), 3 µM Hsc70 D384N with 3 µM UNC-23: 0.24 min⁻¹
Substance: Hsc70 D384N (from UniProt P09446 1-640) (natural protein)

ATPase stimulation (stimulated minus unstimulated turnover), 3 µM Hsc70 with 3 µM UNC-23: 0.18 min⁻¹
Substance: wild type Hsc70 (nematode Hsc70, HSP-1) (from UniProt P09446 1-640) (natural protein)
